This series is described as follows: yeast display, Sf9 membrane polyspecificity reagent, FACS + sequencing; frameworks hold sequencing errors. In short, it runs like this: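 Using colony PCR, genes from sorted yeast display clones were amplified, then sequenced on MiSeq at 2 × 250 and filtered by CDR length. The clones had been stained with 10% biotinylated, detergent-solubilized Sf9 membrane reagent for 1 hour at 4 °C and sorted by FACS into low and high (top ~1%) gates on anti-HA and streptavidin fluorescence. Polyreactivity labels come from the gate of origin.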
For the sequence “QVQLVESGGGLVQAGGSLRLSCAASGFTLSRYVMGWYRQAPGKERELVATISTDTGDTYYADSVKGRFTISRDNAKNTVYLQMNSLKPEDTAVYYCAVEEWYIYLDLYWSYYYWGQGTQVTVSS”, the “polyreactivity (PSR sort gate)” value was “high polyreactivity”.
For “QVQLVESGGGLVQAGGSLRLSCAASGFTLSYYAMGWYRQAPGKERELVAAMTWSDTSTYYADSVKGRFTISRDKAKNTVYVQMNSLKPEDTAVYYCAAEDEWVTWGWGYYYWGQGTQVTVSS” the value was “high polyreactivity”.
The result for “QVQLVESGGGLVQAGGSLRLSCAASGFTLWLNAMGWYRQAPGKERELVAAITTSDDGTYYADSVKGRFTISRDNAKKTVYLQMNSLKPEDTAVYYCAADYYSVLYDYWGQGTQVTVSS” reads “low polyreactivity”.
The result for “QVQLVESGGGLVQAGGSLRLSCAASGFTLYYYDKGWYRQSPGKERELVAAISYSGGTTYYADSVKGRFTISRDNAKNTVYLQMNSLNPDDTAVYYCAAEVGGYWADEYLGYDYWGLGTQVTVSS” reads “low polyreactivity”.
In the case of “QVQLVESGGGLVQAGGSLRLSCAASGFTRIYAMGWYRQAPGKERELVAAISQRGGRTYYADSVKGRFTISRDNAKNTVYLQMNSLKPEDTAVYYCAVRGPYQGRTRYYYWGQGTQVTVSS”, the “polyreactivity (PSR sort gate)” value is “high polyreactivity”.
For “QVQLVESGGGLVQAGGSLRLSCAASGFTSDAYAMGCYRQAPGKDRELVAAISGSGDITYYADSVKGRFTISRDNAKYTVYFQMNSLKPEDTAVYYCSVGSYYAWFYYWGQGTQVTVSS” the value was “high polyreactivity”; for “QVQLVESGGGLVQAGGSLRLSCAASGFTSEYNAMGWYRQAPGNERELVAAITSGGSTYYADSVEGRFTISRDNAKNTVYLQMNSLKPEDTAVDYCAADYYVWGYLLEYGGQGTQVTVSS”, “high polyreactivity”; for “QVQLVESGGGLVQAGGSLRLSCAASGFTSLIYAMGWSRQAPGKESELVATITWGGGSTYADSVKGRFTISRDNAKNTVYLQMNSLKPEDTAVYYCNADIYDSWDYATVYSDRYDYWGQGTQVTVSS”, “low polyreactivity”.
“QVQLVESGGGLVQAGGSLRLSCAASGFTSLVNAMGWYRQAPGKERELVAAITGGGSTNYADSVKGRFTISRDNAKNTVYLQMNSLKPEDTAVYYCNAVGYYGYPRIPQFYAFAFYYWGQGTQVTVSS”: the “polyreactivity (PSR sort gate)” value was “low polyreactivity”.
For “QVQLVESGGGLVQAGGSLRLSCAASGFTSNYYAMGWYRQAPGKERELVAAITTGGSTHYADSVKGRFTISRDNAKNTVYLQMNSLKPEDTAVYYCAAGTNRQQQRYFHHGGYYQYNYWGQGTQVTVSS” the value was “low polyreactivity”.
The result for “QVQLVESGGGLVQAGGSLRLSCAASGFTSSQYAMGWYRQAPGKERELVAAITSSGSSTYYADSVKGRFTISRDNAKNTVYLQMNSLKPEDTAVYYCNTDAYHRYPGSVWYYYWGQGTQVTVSS” reads “high polyreactivity”.
Consider “QVQLVESGGGLVQAGGSLRLSCAASGFTSWQYAMGWSIQAPGKERELVAAISVSGASTYYADSVKGRFTISRDNAKNTVYLQMNSLKPEDTAVYYCAAAYVRYPTTRYYYWGQGTQVTVSS”, for which the “polyreactivity (PSR sort gate)” value is recorded as “high polyreactivity”.
“QVQLVESGGGLVQAGGSLRLSCAASGFTVGYNAMGWYRQAPGKERELVAAIDKRGDSTYADSVKGRFTISRDNAKNTVYLQMNSLKPEDTAVYYCAADSDSKYNYGFLWDTYESWGQGTQVTVSS”: the “polyreactivity (PSR sort gate)” value is “low polyreactivity”.
For “QVQLVESGGGLVQAGGSLRLSCAASGFTVTWYAMAWYRQAPGKERELVASISRSGGSTYYADSVKGRFTISRDNAKNTVSLQMISLKPEDSAVYYCAAVSRTRSYDYWRQGTQVTVSS” the value was “high polyreactivity”; for “QVQLVESGGGLVQAGGSLRLSCAASGFTVYKYVKGWYRQAPGKERELVAAITTSGGSTYYADSVKGRFTISRDNPKNTVYLQMNSLKPEDTAVYYCNARSLHTSEGDYWGQGTQVTVSS”, “low polyreactivity”; for “QVQLVESGGGLVQAGGSLRLSCAASGFTYGSNAMGWYRQAPGKERELVATISRRGGRTYYADSVKGRFTISRDNAKNTVYLQMNSLKPEDTAVYYCAADRSRPGYDYWGQGTQVTVSS”, “high polyreactivity”.
The result for “QVQLVESGGGLVQAGGSLRLSCAASGFTYLYNAMGWYRQAPGKERELVASINSGGSTNYADSVKGRFTISRDNAKNSVYLQMNSLKPEDTAVYFCNAKRLVRKGDYWGQGTQVTVSS” reads “low polyreactivity”; that for “QVQLVESGGGLVQAGGSLRLSCAASGFTYRYYTMGLYRQAPGKERELVAAINTSGAGTYYADSVKGRFTISRDNAKNTVYLQMNSLKPEDTAVYYCAATWYGLDYNYWGQGTQVTVSS”, “high polyreactivity”.
Regarding “QVQLVESGGGLVQAGGSLRLSCAASGFTYYVNAMGWYRPAPGKERELDAAISSSGTRTYYADSVKGRFTISRDNAKNTVYLQMNSLKPEDTAVYYCAARGQAYSGDRMYYWGQGTQVTVSS”, the “polyreactivity (PSR sort gate)” value is “high polyreactivity”.
As for “QVQLVESGGGLVQAGGSLRLSCAASGFYFYSYAMGGYRQAPGKERELVAVISGSGGSTYYADSVKGRFTISRDNAKNTVYLQMNSLKPEDTAVYYCAARNQGNIYGYWGQGTQVTVSS”, the “polyreactivity (PSR sort gate)” value is given as “high polyreactivity”.
The result for “QVQLVESGGGLVQAGGSLRLSCAASGFYGNAMGWYRQAPGKERELVAAITWSGGSTYYADSVKGRFTISRDNAKNTVYLQMNSLKPEDTAVYYCNKLQHRKYNGYDYWGQGTQVTVSS” reads “high polyreactivity”; that for “QVQLVESGGGLVQAGGSLRLSCAASGFYYGIGWYRQAPGTERELVAVITRGGSTNYADSVKGRFTISRDNAKNTVYLQMISLKPEDTAVYYCAARLYWAYRYGSWGQGSQVTVSS”, “high polyreactivity”; that for “QVQLVESGGGLVQAGGSLRLSCAASGGIFAYNAMGWYRQAPGKERELVASISSGGNTYYADSVKGRFTISRDNAKNTVYLQMNSLKPEDTAVYYCNARFYRSWRRFSREPGYNYWGQGTQVTVSS”, “high polyreactivity”.
For “QVQLVESGGGLVQAGGSLRLSCAASGGIFAYYAMGWYRQAPGKERELVAAITSRGGRTYYADSVKGRFTISRDNAKNTVYLQMNSLKPEDTAVYYCNAERFWPWDYDYWGQGTQVTVSS” the value was “high polyreactivity”.
The result for “QVQLVESGGGLVQAGGSLRLSCAASGGIFDINAMGWYRQAPGKERELVAAITQSGGSTYYADSVKGRFTISRDNAKKTVYLQMNSLKPEDTAVYYCAKAVWYQGFDYWGQGTQVTVSS” reads “high polyreactivity”.
Consider “QVQLVESGGGLVQAGGSLRLSCAASGGIFDSYAMGWYRQAPGKERELVAAISWSGDRTYYADSVKGRFTISRDNAKNTVYLQMISLKPEDTAVYYCAADDGYTYGEGYYWGQGTQVTVSS”, for which the “polyreactivity (PSR sort gate)” value is reported as “high polyreactivity”.
The result for “QVQLVESGGGLVQAGGSLRLSCAASGGIFFPNAMGWYRQAPGKERELVAAISWSAGSTYYADSVKGRFTISRDHAKNTVDLQMNSLKPEDTAVYYCPAAGSNYTVWYGYYYWGQGTQVTVSS” reads “low polyreactivity”; that for “QVQLVESGGGLVQAGGSLRLSCAASGGIFFSNVMGWYRQAPGKERELVAAITSGDNTNYADSVKGRFTISRDNAKNTVYLQMNSLKPEDTAVYYCNADVASEYSDKYDYWGQGTQVTVSS”, “low polyreactivity”.
For “QVQLVESGGGLVQAGGSLRLSCAASGGIFFSYAMGWYRQAPGKERELVAAIRTNGGTTYYADSVKGRFTISRDNAKNTVYLQMNSLKPEDTAVYYCAAKQFSVTLSNYWGQGTQVTVSS” the value was “low polyreactivity”.
The result for “QVQLVESGGGLVQAGGSLRLSCAASGGIFGGYAMGWYRQAPGKDREFVAAISRRGGSTYYADSVKGRFTISRDNAKNTVYLQMNSLKPEDTAVYYCAADRYPSLYDYWGQGTQVTVSS” reads “high polyreactivity”; that for “QVQLVESGGGLVQAGGSLRLSCAASGGIFGGYAMGWYRQAPRKERELVATITSGTSTNYADSVKGRFTISRDNAKNTVYLQMNSLKPEDTAVYYCNAGGVYPRFTFLEQGYEMEYWGQGTQVTVSS”, “low polyreactivity”.
In the case of “QVQLVESGGGLVQAGGSLRLSCAASGGIFGHYGMGWYRQAPGQERELVASISWNGGSTYYADSVKGRFTSSRDNAKNTVYLQMNSLKPEDTAVYYCAARAIWLRYVGYTYYYWGQGTQVTVSS”, the “polyreactivity (PSR sort gate)” value is “high polyreactivity”.
The result for “QVQLVESGGGLVQAGGSLRLSCAASGGIFGINAMGWYRQAPWKERELVSAINLSGGRTYYADSVKGRFTISRDNSKNTVYLHMNSLKPEDTAVYYCAAYYGYSLYGHYEYWGQGTQVTVSS” reads “high polyreactivity”.
For “QVQLVESGGGLVQAGGSLRLSCAASGGIFGKYAMGWYRQAPGKERELVAAITSSGGSTFYADSVKGRFTNSRDNAKNTVYLQMNSLKPEDTAVYYCAARFSSYVRRYYYWGQGTQVTVSS” the value was “high polyreactivity”; for “QVQLVESGGGLVQAGGSLRLSCAASGGIFGLYTMGWYRQAPGKERELVAAISKTGGSTYYADSVKGRFTISRDNAKNTVYLQMNSLNPEDTAVYYCAADGPYDDYEYWGQGTQVTVSS”, “high polyreactivity”.
For “QVQLVESGGGLVQAGGSLRLSCAASGGIFGRYAMGWYRQAPGKERELVAAISSRGGSTYYADSVKGRFTISRDNAKNTVYLQMNSLKPEDTAVYYCNALWVSYYTFRMDYWGQGTQVTVSS” the value was “high polyreactivity”; for “QVQLVESGGGLVQAGGSLRLSCAASGGIFGYYTMGWYRQAPGKERELVAVITRSGGSTYYADSVKGRFTISRDNAKNTVYLQMNSLKPEDTAVYYCASGWRGGRYRYFAYDYWGQGTQVTVSS”, “high polyreactivity”.
“QVQLVESGGGLVQAGGSLRLSCAASGGIFGYYTRGWYRQAPGKEREVVAAISRRGGSTYYADSVKGRFTISRDNAKNTVYLQMNSLKPEDTAVYYCAAGLSSGGTHYDYWGQGTQVTVSS”: the “polyreactivity (PSR sort gate)” value is recorded as “high polyreactivity”.
In the case of “QVQLVESGGGLVQAGGSLRLSCAASGGIFIFYAMGWYRQAPGKERELVAAISNVSSTNYADSVKGRFTISRDNAKNTVYLQMNSLKPEDTAVYYCNAVGVPSEYYSWGQGTQVTVSS”, the “polyreactivity (PSR sort gate)” value is “low polyreactivity”.
In the case of “QVQLVESGGGLVQAGGSLRLSCAASGGIFIRNAMGWYRQAPGKERELVATISNAGSTYADSVKGRFTISRDNAKNTVYLQMNSLKPEDTAVYYCNRDDWTYPVSQGLQEYDYWGQGTQVTVSS”, the “polyreactivity (PSR sort gate)” value is reported as “low polyreactivity”.
The result for “QVQLVESGGGLVQAGGSLRLSCAASGGIFKYNAMGWYRQAPGKERELVAAIDTSGGSTYYADSVKGRFTISRDKAKNTVYLQMNSLKPDDTAVYYCAAELCLAQYYYWGQGTQVTVTS” reads “low polyreactivity”.

The values above are taken from the nanobody polyreactivity screen of Harvey et al. (2022).
